Two molecules from doi:10.1101/2024.10.26.620377 (bioRxiv, 2024) can be followed below.

Test [1] has as its target GPR52 H8-A mutant, receptor-RLuc8 (human) (UniProt Q9Y2T5).
Test [2] has the same target. In words: FRET or BRET. On the technique in general: In BRET a luciferase serves as donor, and the signal depends on an acceptor being close.
The target in test [3] is T1, GPR52 (wild-type), receptor-RLuc8 BRET biosensor (human, UniProt Q9Y2T5 1-361). Briefly: FRET or BRET.
Test [4] concerns the target T1, GPR52 (wild-type), receptor-RLuc8 BRET …. Briefly: FRET or BRET. This is another data set of the same source.

“β-arrestin2-GFP2 (from UniProt P32121 1-409) (natural protein)” gave a Tango assay, constitutive β-arrestin2 recruitment, % Emax relative to wild-type in test [1] of 300 % Emax. The molecule also registered a % Emax of BRET, unliganded, relative to wild-type in test [2] of 451 % Emax.

B1: β-arrestin1-GFP2 (natural protein)
chain: MGDKGTRVFKKASPNGKLTVYLGKRDFVDHIDLVDPVDGVVLVDPEYLKERRVYVTLTCAFRYGREDLDVLGLTFRKDLFVANVQSFPPAPEDKKPLTRLQERLIKKLGEHAYPFTFEIPPNLPCSVTLQPGPEDTGKACGVDYEVKAFCAENLEEKIHKRNSVRLVIRKVQYAPERPGPQPTAETTRQFLMSDKPLHLEASLDKEIYYHGEPISVNVHVTNNTNKTVKKIKISVRQYADICLFNTAQYKCPVAMEEADDTVAPSSTFCKVYTLTPFLANNREKRGLALDGKLKHEDTNLASSTLLREGANREILGIIVSYKVKVKLVVSRGGLLGDLASSDVAVELPFTLMHPKPKEEPPHREVPENETPVDTNLIELDTNDDDIVFEDFARQRLKGMKDDKEEEEDGTGSPQLNNR
Consider B1, for which the “% Emax of BRET, agonist-induced, relative to the GLP-1R full response” value in test [3] amounted to 19.5 % Emax. The same molecule gave a % Emax of BRET, agonist-induced, relative to wild-type in test [2] of 470 % Emax. For the same molecule, the “% Emax of BRET, unliganded, relative to the GLP-1R full response” value in test [4] came to 5.1 % Emax.
